Broadly, the Ki is a measure of affinity in units of concentration, obtained from inhibition or displacement. The low end stands for higher affinity, the high end for lower affinity.

Here are results for 17 molecules from patent publication US11814447B2, “Peptide ligands for binding to EphA2” (BICYCLERD LIMITED, priority 2018, dated 2023).

Starred links: 1 amine or outer side, 2 acyl side, 3 side chain; linkers in the order of their positions; H or OH if unused. Positions of bridges follow the written chain, without caps; N, C: chain ends. Non-standard residues stand in square brackets, D forms with d. Primed or numbered codes have the meaning given here. No end group written: not given here. TBMB′ = 1,3,5-tris(bromomethyl)benzene, 1,3,5-tris(methylene)benzene core, three thioethers to Cys; TATA = O=C(CC[*:1])N1CN(C(=O)CC[*:2])CN(C(=O)CC[*:3])C1; TBMB = c1c(C[*:1])cc(C[*:3])cc1C[*:2]; Sar = CNCC(=O)O A value given as a limit tells only on which side of the number the result lay.

The chains are these.
B1: Bicycle Compound Number 65 (TATA scaffold), ARDCPLVNPLCLHPGWTCA (peptide)
peptide: ARDCPLVNPLCLHPGWTCA
modifications: linker 4-11-18 via TATA
B2: Bicycle Compound Number 73 (TATA scaffold), ACPLVNPLCLHPGWTCLHG (peptide)
peptide: ACPLVNPLCLHPGWTCLHG
modifications: linker 2-9-16 via TATA
B3: Bicycle Compound 151 (peptide)
peptide: ADVHCPWAPFWCPVNRPGCA
modifications: linker 5-12-19 via TBMB
B4: Bicycle Compound 156 (peptide)
peptide: ADVHCPWGPFWCPVN[dA]PGCA
modifications: linker 5-12-19 via TBMB
B5: Bicycle Compound 152 (peptide)
peptide: ADVHCPWGAFWCPVNRPGCA
modifications: linker 5-12-19 via TBMB
B6: Bicycle Compound 155 (peptide)
peptide: ADVHCPWGPFWCPV[dA]RPGCA
modifications: linker 5-12-19 via TBMB
B7: Bicycle Compound 173 (peptide)
peptide: Ac-[Sar][Sar]A[dD]VTCPWGPAWCPVNRPGC
modifications: linker 7-14-21 via TBMB′
B8: Bicycle Compound 111 (peptide)
peptide: [Sar][Sar]ACPWGPFWCPVNRPAC
modifications: linker 4-11-18 via TBMB
B9: Bicycle Compound 289 (peptide)
peptide: [Sar][Sar]ACPWGAFWCPVNRPGC
modifications: linker 4-11-18 via TBMB
B10: Bicycle Compound 104 (peptide)
peptide: [Sar][Sar]ACPWGPFWCPVNRAGC
modifications: linker 4-11-18 via TBMB
B11: Bicycle Compound 105 (peptide)
peptide: [Sar][Sar]ACPWGPFWCPVNR[dA]GC
modifications: linker 4-11-18 via TBMB
B12: Bicycle Compound 112 (peptide)
peptide: [Sar][Sar]ACPWGPFWCPVNRP[dA]C
modifications: linker 4-11-18 via TBMB
B13: Bicycle Compound 102 (peptide)
peptide: [Sar][Sar]ACPWGPFWCPV[dA]RPGC
modifications: linker 4-11-18 via TBMB
B14: Bicycle Compound 83 (peptide)
peptide: [Sar][Sar]ACPWGPAWCPVNRPGC
modifications: linker 4-11-18 via TBMB
B15: Bicycle Compound 302 (peptide)
peptide: [Sar][Sar]ACPWGPFWCPVN[dA]PGC
modifications: linker 4-11-18 via TBMB
B16: Bicycle Compound 291 (peptide)
peptide: [Sar][Sar]ACPWGPFWCAVNRPGC
modifications: linker 4-11-18 via TBMB
B17: Bicycle Compound 297 (peptide)
peptide: [Sar][Sar]ACPWG[dA]FWCPVNRPGC
modifications: linker 4-11-18 via TBMB

The target of the first test is T1, Mouse EphA2 (Ecto) (Mouse, UniProt Q03145 26-538).
T1 construct: extracellular domain; C-terminal polyHis; not shown: Fc fusion or C-terminal polyHis
T1 sequence (Q03145 26-538): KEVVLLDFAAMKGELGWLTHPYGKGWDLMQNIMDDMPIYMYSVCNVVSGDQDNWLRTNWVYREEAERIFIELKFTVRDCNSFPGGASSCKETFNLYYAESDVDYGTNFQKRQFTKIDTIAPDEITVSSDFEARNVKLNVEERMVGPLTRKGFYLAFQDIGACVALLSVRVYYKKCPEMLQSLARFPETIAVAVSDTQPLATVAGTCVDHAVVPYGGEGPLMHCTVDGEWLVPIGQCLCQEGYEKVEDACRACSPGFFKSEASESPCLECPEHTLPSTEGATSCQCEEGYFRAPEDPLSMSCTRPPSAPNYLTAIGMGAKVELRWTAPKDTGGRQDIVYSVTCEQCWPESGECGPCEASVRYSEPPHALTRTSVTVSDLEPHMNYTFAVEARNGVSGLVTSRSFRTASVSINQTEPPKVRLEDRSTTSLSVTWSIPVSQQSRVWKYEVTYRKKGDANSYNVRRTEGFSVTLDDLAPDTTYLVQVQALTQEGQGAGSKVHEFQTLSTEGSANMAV
Put plainly: FP competition; tracer Reference Compound C. On the procedure:
(§1) Peptides without a fluorescent tag were tested in competition with a peptide with a fluorescent tag and a known Kd (Table 2). Peptides were diluted to an appropriate concentration in assay buffer as described in the direct binding assay with a maximum of 5% DMSO, then serially diluted 1 in 2. […] Measurements were conducted as for the direct binding assay, however the gain was determined prior to the first measurement. Data analysis was in Systat Sigmaplot version 12.0 where the mP values were fit to a user defined cubic equation to generate a Ki value: […]
In the case of B1, the Ki was 39.1 nM. B2 yielded a Ki of 7.27 nM.

A further test addresses T2, Human EphA2 (Ecto) (Human, UniProt P29317 24-537).
T2 construct: extracellular domain; in-house)
The test is described as follows: FP competition; tracer Reference Compound C. Here is the method: as §1
T2 sequence (P29317 24-537): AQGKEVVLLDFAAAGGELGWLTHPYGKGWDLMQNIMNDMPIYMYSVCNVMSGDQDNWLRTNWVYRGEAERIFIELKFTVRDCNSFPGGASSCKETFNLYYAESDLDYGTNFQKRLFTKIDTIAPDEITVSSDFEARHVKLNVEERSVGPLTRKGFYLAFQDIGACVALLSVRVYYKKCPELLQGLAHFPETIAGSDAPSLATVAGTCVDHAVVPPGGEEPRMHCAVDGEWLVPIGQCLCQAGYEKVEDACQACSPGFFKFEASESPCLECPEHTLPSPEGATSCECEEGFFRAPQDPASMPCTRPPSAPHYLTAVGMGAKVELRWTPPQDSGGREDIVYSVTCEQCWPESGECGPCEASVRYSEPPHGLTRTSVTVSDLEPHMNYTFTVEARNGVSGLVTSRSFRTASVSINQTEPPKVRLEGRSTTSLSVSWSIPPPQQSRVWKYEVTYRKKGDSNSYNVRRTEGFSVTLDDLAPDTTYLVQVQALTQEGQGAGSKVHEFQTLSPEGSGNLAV
Molecule B1 returned a Ki of 6.05 nM.

The target in another test is T3, Human EphA2 (Ecto) (Human, UniProt P29317 24-537).
T3 construct: extracellular domain
The test is described as follows: FP competition, tracer Compound 18. Here is the method:
as §1
T3 sequence (P29317 24-537): as above
Turning to B3, the affinity, expressed as Ki, was 394 nM. In the case of B4, the Ki worked out at 14.9 nM. Consider B5, for which the Ki is 1.8 nM. On to B6, for which the inhibition constant (Ki) came out at 2 nM. The same measure, in the same setting: as for B7, the figure is 6.69 nM.

The next test has as its target T3, Human EphA2 (Ecto). The test is described as follows: FP competition, tracer Compound 18. The source holds these as a separate data set. Here is the method:
as §1
Molecule B8 had an inhibitory constant (Ki) of 108 nM.

In turn, B9 had a Ki of over 1000 nM. The molecule B10 gave a Ki of 124 nM.

As for B11, the Ki came out at 677 nM. B12 yielded an inhibitory constant (Ki) of 89 nM.

In turn, B13 yielded a Ki of 317 nM.

As to B14, the Ki came to 199 nM. In turn, B15 yielded a Ki of over 1000 nM.

Take B3: the Ki turned out to be 394 nM.

B4: the Ki was 14.9 nM. Molecule B5 yielded a Ki of 1.8 nM.

Consider B6, for which the Ki amounted to 2 nM. Same read-out and setting: in the case of B16 it was over 1000 nM; in that of B7, 6.69 nM.

For another test, the target named is T3, Human EphA2 (Ecto). The test is described as follows: FP competition, tracer Compound 66.
As for B8, affinity was put at a Ki of 238 nM. Still for that read-out and setting: in the case of B9 it was 1100 nM; in that of B10, 194 nM. The same measure, in the same setting: as for B11, the figure is 471 nM. For the molecule B17, the Ki was determined as 1500 nM.

In turn, B12 yielded a Ki of 110 nM. The molecule B13 yielded a Ki of 312 nM. On to B14, for which the inhibitory constant (Ki) worked out at 288 nM. Molecule B15 registered a Ki of 1410 nM.
